These results are taken from patent US11872268B2, “Safe and effective beta-lactamase dosing for microbiome protection” (Theriva Biologics, Inc., priority 2015, dated 2024).

Where two headings read alike, the source gives them in different places.

The target of one data set is SYN-004 (Bacillus licheniformis, UniProt P00808, D288N). Briefly: SYN-004 activity in human intestinal chyme in the presence of beta-lactamase inhibitor (ceftriaxone by LC/MS-MS). It counts as biochemical. Particulars: 20 mg/ml Sulbactam, 8 ug/ml SYN-004. On the procedure: Ceftriaxone (at 3 ug/ml or 1500 ug/ml) was mixed with human intestinal chyme alone, or with chyme plus SYN-004 (8 ug/ml) or with chyme plus the beta-lactamase inhibitor sulbactam, (20 mg/ml) or chyme plus both and then the samples were flash frozen. The flash frozen samples were thawed on ice and sulbactam was added to some samples, the protein was precipitated with acetonitrile and the samples were analyzed for ceftriaxone concentration by LC/MS-MS. The table below provides results from triplicate samples.

Data set [1] can be described thus: Phase 1b/2a ileostomy study (Example 5): ceftriaxone plasma concentration. It is filed as in vivo, human. Particulars: 1 g IV with and without oral SYN-004 75 or 150 mg. On the procedure: (§1) This example evaluated the effects of two strengths of oral SYN-004 (75 mg or 150 mg) administered twice in six hours on the plasma pharmacokinetics (PK) and chyme concentrations of a single dose of ceftriaxone administered as an intravenous (IV) infusion (1 g infused over 30 minutes). Further, this example evaluated if SYN-004 was present in chyme, if there was absorption of SYN-004 into plasma, and the safety and tolerability of SYN-004 (75 mg or 150 mg) in combination with IV ceftriaxone.
This was a Phase 1, randomized, multi-center, open-label study. Ten otherwise healthy subjects with functioning ileostomies who were between the ages of 18 and 80 years, inclusive, were enrolled. […]
Pharmacokinetics: Serial blood (5 mL each) and chyme samples (2 mL minimum) were collected on Day 1 of Period 1 and Period 2. The following PK parameters of SYN-004 and ceftriaxone were determined from the plasma and chyme concentration-time data for all evaluable subjects using non-compartmental methods: maximum observed plasma concentration (Cmax), area under the concentration-time curve from time 0 to the last quantifiable concentration (AUCt), and time to reach Cmax (Tmax) as applicable. In addition, area under the concentration-time curve from time 0 to infinity (AUC∞) was calculated where determinable.

Details of data set [2]: species or system human. The following applies: in vivo. As to the method: as §1
This was a Phase 1, randomized, multi-center, open-label study. Ten otherwise healthy subjects with functioning ileostomies who were between the ages of 18 and 80 years, inclusive, were enrolled. As an overview, in the first treatment period (Period 1) all subjects received an IV infusion of 1 gram (g) ceftriaxone. In the second treatment period (Period 2) all subjects received an IV infusion of 1 g ceftriaxone and 2 doses of either 75 mg or 150 mg of SYN-004, according to the randomization schedule, and administered 30 minutes before and 5.5 hours after the ceftriaxone infusion. Subjects were screened for study participation within 45 days prior to Check-in (Day −1), and the entire duration of the study may be up to 64 days (from Screening to the end-of-study visit).
The active dosage form of SYN-004 being administered was a hard gelatin, size 0, opaque white capsule containing delayed-release mini-pellets. Subjects randomized to Treatment AB received two oral doses of SYN-004 75 mg (1×75 mg capsule) twice in one day on Day 1 of Period 2. Subjects randomized to Treatment AC received two oral doses of SYN-004 150 mg (2×75 mg capsules) twice in one day on Day 1 of Period 2.
Specifically, in Period 1, all subjects received an IV infusion of 1 g ceftriaxone administered over 30 minutes on Day 1. In Period 2, subjects again received an IV infusion of 1 g ceftriaxone administered over 30 minutes on Day 1, as well as two oral doses of SYN-004 (75 mg or 150 mg) 30 minutes before and 5.5 hours after the IV infusion of 1 g ceftriaxone. All subjects received an infusion of ceftriaxone 1 g over 30 minutes in Period 1 and a second identical, time matched infusion in Period 2. The exact time of day of dosing for consecutive subjects may be staggered (±1 hour) to accommodate sample collection logistics; however, the time of day of ceftriaxone administration on Day 1 in Periods 1 and 2 were consistent for each subject.
With respect to meals and fluid intake, on Day 1 in each period, subjects received a small non-fatty meal approximately 1 hour (7:00 AM) prior to administration of ceftriaxone and again 5 hours after the start of infusion (1:00 PM). Subjects received full meals at approximately 2 and 7.5 hours after the start of the infusion (10:00 AM and 3:30 PM), respectively. In order to generate sufficient chyme output, subjects drank 8 ounces of water or apple juice at the start of the infusion and at 0.5, 1, and 1.5 hours after the start of the infusion (i.e., every half hour between 8:00 AM and 9:30 AM); thereafter, subjects were encouraged to drink 8 ounces of water or apple juice hourly between 2 and 7 hours after the start of the infusion (10:00 AM to 3:00 PM).
On Day 1, Period 1, serial blood and chyme samples were collected from approximately 30 minutes pre-dose through approximately 7 hours for serial blood and 8.5 for chyme after the start of infusion for determination of ceftriaxone concentration. […]

The conditions of data set [3]: human, in vivo, po. On the procedure: A Phase 1, double blind, placebo controlled study was carried out to assess the safety, tolerability, and pharmacokinetics (PK) of SYN-004 in healthy adult subjects. Specifically, a single dose of oral SYN-004 capsule (75 mg, 150 mg, 300 mg, 600 mg, or 750 mg) was administered to subjects. Blood samples were collected for PK evaluation and determination of anti-SYN-004 antibodies. A total of 40 healthy adult subjects were enrolled in the study with 6 active and 2 placebo subjects per cohort.

Details of data set [4]: species or system human. The following applies: in vivo, po. As to the method:
(§2) A Phase 1, double blind, randomized, placebo controlled study was carried out to assess the safety, tolerability, and PK of SYN-004 in healthy adult subjects. Specifically, multiple doses of oral SYN-004 capsules (75 mg, 150 mg, or 300 mg) were administered to the subjects at 4 doses per day for 7 days. Blood samples were collected for PK evaluation and determination of anti-SYN-004 antibodies. A total of 24 healthy adult subjects were enrolled in the study with 6 active and 2 placebo subjects per cohort.

The conditions of data set [5]: human, in vivo. As to the method:
as §2

SYN-004, sequence (P00808 44-307 D288N): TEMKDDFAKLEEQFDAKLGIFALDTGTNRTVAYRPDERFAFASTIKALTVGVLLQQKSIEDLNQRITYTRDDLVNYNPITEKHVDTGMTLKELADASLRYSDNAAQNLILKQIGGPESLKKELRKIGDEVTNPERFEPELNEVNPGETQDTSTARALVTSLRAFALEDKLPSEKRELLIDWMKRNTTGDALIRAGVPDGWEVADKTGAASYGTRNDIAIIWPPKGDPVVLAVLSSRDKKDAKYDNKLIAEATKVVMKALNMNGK

In the case of `CC1(C)[C@H](C(=O)O)N2C(=O)C[C@H]2S1(=O)=O` [Sulbactam, sulbactam], on SYN-004, the “inhibition of SYN-004 activity in intestinal chyme” value was “did not substantially inhibit SYN-004 activity”.

In the case of `CO/N=C(\C(=O)N[C@@H]1C(=O)N2C(C(=O)O)=C(CSc3nc(=O)c(=O)[nH]n3C)CS[C@H]12)c1csc(N)n1` [Ceftriaxone], the “plasma concentration of ceftriaxone, Period 1 versus Period 2” value in data set [1] is “no significant difference”. In addition, in data set [2] (human), the “time ceftriaxone appeared in the chyme” value lay within 1.5 to 2.5 h and the “time of second peak of ceftriaxone in chyme” value lay in the range of 6 to 8 h. Further, in data set [2] (human, iv), the “peak ceftriaxone in chyme” value lay in the range of 115 to 1400 µg/mL.

As for “SYN-004: beta-lactamase with the amino acid sequence of SEQ ID NO: 1; given orally as delayed-release capsule of enteric-coated pellets”, the systemic bioavailability result in data set [3] is reported as “not systemically bioavailable”. Also, in data set [3] (750 mg), the “Cmax (plasma)” value was found to be 1.4 ng/mL and the “Tmax (plasma)” value was 1 to 4 h. For the same compound, in data set [4], the anti-SYN-004 antibodies result was “No anti-SYN-004 antibodies were detected”. Moreover, in data set [2], the “degradation of ceftriaxone in chyme” value was “effectively degraded ceftriaxone” and the “time measurable SYN-004 began to be detectable in the chyme” value turned out to be 5.5 h. The systemic bioavailability entry in data set [5] is recorded as “not systemically bioavailable”.
